Experimental data published in patent US20230101835A1.

Target: plasma derived C3b (UniProt P01024)
Experiment: cell-based or functional assay

Chain of UniProt P01024 (P01024 749-1663 limits assumed, chain 1 of 2): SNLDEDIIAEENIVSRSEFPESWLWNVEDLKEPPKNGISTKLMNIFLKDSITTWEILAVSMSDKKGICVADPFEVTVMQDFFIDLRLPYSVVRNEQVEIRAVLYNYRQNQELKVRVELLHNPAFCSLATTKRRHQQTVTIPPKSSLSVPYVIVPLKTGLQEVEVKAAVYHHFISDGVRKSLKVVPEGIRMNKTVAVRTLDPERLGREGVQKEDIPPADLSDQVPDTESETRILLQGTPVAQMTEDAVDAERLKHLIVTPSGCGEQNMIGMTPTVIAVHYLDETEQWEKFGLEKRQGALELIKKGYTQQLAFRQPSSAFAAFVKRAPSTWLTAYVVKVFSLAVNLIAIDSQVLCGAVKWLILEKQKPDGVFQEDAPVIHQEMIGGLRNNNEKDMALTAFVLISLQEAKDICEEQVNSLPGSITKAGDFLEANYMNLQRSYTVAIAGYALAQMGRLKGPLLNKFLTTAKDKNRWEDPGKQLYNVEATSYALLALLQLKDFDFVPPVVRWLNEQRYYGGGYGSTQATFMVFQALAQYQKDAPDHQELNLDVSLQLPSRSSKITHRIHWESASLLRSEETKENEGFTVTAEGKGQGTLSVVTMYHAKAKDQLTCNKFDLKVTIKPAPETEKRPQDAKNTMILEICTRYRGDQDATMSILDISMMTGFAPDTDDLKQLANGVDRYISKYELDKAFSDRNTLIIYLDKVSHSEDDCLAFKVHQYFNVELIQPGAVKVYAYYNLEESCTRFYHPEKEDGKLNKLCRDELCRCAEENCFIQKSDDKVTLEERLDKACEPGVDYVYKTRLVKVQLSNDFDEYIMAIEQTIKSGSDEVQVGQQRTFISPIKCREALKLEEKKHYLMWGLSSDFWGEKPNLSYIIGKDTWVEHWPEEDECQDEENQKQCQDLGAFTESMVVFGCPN
Chain of UniProt P01024 (P01024 23-667 limits assumed, chain 2 of 2): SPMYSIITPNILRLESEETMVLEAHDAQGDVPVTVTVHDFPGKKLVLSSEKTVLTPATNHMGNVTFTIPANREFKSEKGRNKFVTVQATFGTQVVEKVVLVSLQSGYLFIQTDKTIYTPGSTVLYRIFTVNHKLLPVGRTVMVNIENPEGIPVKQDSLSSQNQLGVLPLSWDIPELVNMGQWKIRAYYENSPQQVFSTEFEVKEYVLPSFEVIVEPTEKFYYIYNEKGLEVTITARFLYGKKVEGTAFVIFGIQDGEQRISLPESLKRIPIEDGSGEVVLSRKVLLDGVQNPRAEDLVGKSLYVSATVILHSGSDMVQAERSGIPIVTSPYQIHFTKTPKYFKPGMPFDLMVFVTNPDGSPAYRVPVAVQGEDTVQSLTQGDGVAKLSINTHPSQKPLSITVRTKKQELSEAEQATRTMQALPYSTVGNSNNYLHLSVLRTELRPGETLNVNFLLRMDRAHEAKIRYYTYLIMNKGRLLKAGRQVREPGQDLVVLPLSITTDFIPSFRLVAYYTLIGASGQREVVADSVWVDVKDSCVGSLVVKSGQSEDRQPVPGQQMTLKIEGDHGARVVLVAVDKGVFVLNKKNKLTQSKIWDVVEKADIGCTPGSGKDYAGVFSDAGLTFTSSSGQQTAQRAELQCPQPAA

fluid phase Factor I cofactor activity: concentration of regulator at which the C3α′ band disappears (complete degradation of C3b), SDS-PAGE: 200 nM
Substance: FH^1-5∧18-20 (from UniProt P08603 19-322; P08603 1046-1231)
